B1: OVA/saline: OVA in saline, no adjuvant control (protein, UniProt P01012 2-386, looked up)
Ovalbumin: GSIGAASMEFCFDVFKELKVHHANENIFYCPIAIMSALAMVYLGAKDSTRTQINKVVRFDKLPGFGDSIEAQCGTSVNVHSSLRDILNQITKPNDVYSFSLASRLYAEERYPILPEYLQCVKELYRGGLEPINFQTAADQARELINSWVESQTNGIIRNVLQPSSVDSQTAMVLVNAIVFKGLWEKAFKDEDTQAMPFRVTEQESKPVQMMYQIGLFRVASMASEKMKILELPFASGTMSMLVLLPDEVSGLEQLESIINFEKLTEWTSSNVMEERKIKVYLPRMKMEEKYNLTSVLMAMGITDVFSSSANLSGISSAESLKISQAVHAAHAEINEAGREVVGSAEAGVDAASVSEEFRADHPFLFCIKHIATNAVLFFGRCVSP
B2: OVA/CaCl2: OVA in saline supplemented with 15 mM CaCl2, no adjuvant group (protein, UniProt P01012 2-386, looked up)
Ovalbumin: GSIGAASMEFCFDVFKELKVHHANENIFYCPIAIMSALAMVYLGAKDSTRTQINKVVRFDKLPGFGDSIEAQCGTSVNVHSSLRDILNQITKPNDVYSFSLASRLYAEERYPILPEYLQCVKELYRGGLEPINFQTAADQARELINSWVESQTNGIIRNVLQPSSVDSQTAMVLVNAIVFKGLWEKAFKDEDTQAMPFRVTEQESKPVQMMYQIGLFRVASMASEKMKILELPFASGTMSMLVLLPDEVSGLEQLESIINFEKLTEWTSSNVMEERKIKVYLPRMKMEEKYNLTSVLMAMGITDVFSSSANLSGISSAESLKISQAVHAAHAEINEAGREVVGSAEAGVDAASVSEEFRADHPFLFCIKHIATNAVLFFGRCVSP

Legend:
[1] = system: OVA; format: in vivo, Balb/c mice
[2] = system: OVA; experiment: Anti-OVA antibody responses (ELISA) in immunized C57BL/6 mice; conditions: i.n. at 0, 7, 21 d, 10 μg OVA/immunization; 28 d
[3] = system: EG.7 cells; experiment: Cytotoxic T lymphocyte (CTL) assay, 51Cr release, spleen cells of immunized mice; format: in vivo, C57BL/6 mice; conditions: i.n. at 0, 7, 21 d, 10 μg OVA/immunization; spleen cells at 36-42 d; target EG.7 cells
Description: For conducting cytotoxic (cytotolytic) T Lymphocyte (CTL) assays, EL-4 and EG.7 (subclone of EL-4 that has been stably transfected with the gene encoding for OVA expression), cell lines were obtained from the American Type Culture Collection (ATCC, Manassas, Va., USA). Both cell lines were maintained in RPMI 1640 medium (Life Technologies, Grand Island, N.Y.) supplemented with 8% fetal bovine serum (FBS, Invitrogen Canada, Inc., Burlington, Ontario, Canada), except that 400 μg/ml G418 supplement (Invitrogen Canada Inc.) was also added for maintaining the EG.7 cell line. All cells were cultured at 37° C. in a humidified atmosphere of air containing 8% CO2. […]
After 5 days incubation (37° C., 8% CO2 in air), the cells were recovered, washed, and counted for use as effector cells for the CTL assay. […] The culture supernatants were collected and the released radioactivity in 70 μl aliquots for gamma counter or in 50 μl aliquots for beta counter, was measured after adding to 150 μl Optiphase Supermix^R scintillant (PerkinElmer LAS Canada, Inc., Woodbridge, Ontario, Canada). Percent specific cell lysis was calculated as 100×[(cpm experimental−cpm spontaneous)/cpm maximum−cpm spontaneous)]. […]

| Molecule | anti-OVA IgA responses ([1]; mouse, in vivo) | anti-OVA IgA responses in fecal, vaginal wash and serum samples [2] | serum IgG, IgG1 and IgG2a responses [2] | CTL response, specific cell lysis [3] | anti-OVA IgA antibody responses (fecal, vaginal, nasal, bile, serum) ([1]; 28 d) |
| --- | --- | --- | --- | --- | --- |
| B1 | negligible to not measurable | Little to no measurable | measurable, but smaller | no CTL response |  |
| B2 |  |  |  |  | little or no measurable |
